Assay results published in PMC9558310 (ACS Chemical Biology, 2019).

B1: tag-free recombinant human pyridoxal 5'-phosphate-binding protein (PLPBP) (natural protein)
chain: not shown
modifications: pyridoxal 5'-phosphate bound at Lys47 (internal aldimine)
B2: Strep-tag recombinant human PLPBP (natural protein)
chain: not shown
modifications: pyridoxal 5'-phosphate bound at Lys47 (internal aldimine)
B3: human PLPBP R41Q mutant (natural protein)
chain: not shown
modifications: fully saturated with PLP after purification

Biological target: the molecule itself
Assay: SEC

Row | Protein | stoichiometry N | binding result
1 | B1 | 2 | 
2 | B2 | 2 | 
3 | B3 |  | binds
